Reference: patent US20210332123A1 (SUZHOU KANOVA BIOPHARMACEUTICAL, published 2021)

T1: human IL-25 (human, UniProt Q9H293 33-177)
T1 construct: ELISA used bought R&D systems #1258-IL-025/CF; Treated as one molecule; also called IL-17E; human IL-17E
T1 sequence (looked up): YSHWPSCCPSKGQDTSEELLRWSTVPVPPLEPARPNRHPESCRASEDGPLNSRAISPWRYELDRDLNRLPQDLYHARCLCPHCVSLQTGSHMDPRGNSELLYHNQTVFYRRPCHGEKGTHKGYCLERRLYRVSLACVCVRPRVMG

T2: human IL-17B (human, UniProt Q9UHF5 21-180)
T2 sequence (looked up): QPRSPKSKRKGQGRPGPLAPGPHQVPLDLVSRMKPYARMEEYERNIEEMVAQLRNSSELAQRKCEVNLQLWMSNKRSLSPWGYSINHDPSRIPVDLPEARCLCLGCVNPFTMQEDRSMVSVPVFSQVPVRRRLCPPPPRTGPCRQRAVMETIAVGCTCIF

T3: human IL-17C (human, UniProt Q9P0M4 19-197)
T3 sequence (looked up): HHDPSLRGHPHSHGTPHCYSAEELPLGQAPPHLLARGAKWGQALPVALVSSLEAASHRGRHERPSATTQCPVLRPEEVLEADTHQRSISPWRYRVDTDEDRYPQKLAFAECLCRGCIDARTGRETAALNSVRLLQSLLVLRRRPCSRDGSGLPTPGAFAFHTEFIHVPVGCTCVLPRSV

T4: human IL-17A (human, UniProt Q16552 24-155, limits assumed)
T4 sequence (looked up): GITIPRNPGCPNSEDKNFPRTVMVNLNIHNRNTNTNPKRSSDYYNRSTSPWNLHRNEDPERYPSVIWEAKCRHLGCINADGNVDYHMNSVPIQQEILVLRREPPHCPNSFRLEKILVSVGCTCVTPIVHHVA

T5: human IL-17D (human, UniProt Q8TAD2 18-202, limits assumed)
T5 sequence (looked up): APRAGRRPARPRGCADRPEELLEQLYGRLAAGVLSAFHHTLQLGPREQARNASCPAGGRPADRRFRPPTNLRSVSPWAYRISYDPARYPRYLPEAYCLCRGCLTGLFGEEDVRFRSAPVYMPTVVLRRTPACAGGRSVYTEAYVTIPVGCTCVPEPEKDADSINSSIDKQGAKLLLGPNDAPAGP

T6: human IL-17F (human, UniProt Q96PD4 31-163)
T6 sequence (looked up): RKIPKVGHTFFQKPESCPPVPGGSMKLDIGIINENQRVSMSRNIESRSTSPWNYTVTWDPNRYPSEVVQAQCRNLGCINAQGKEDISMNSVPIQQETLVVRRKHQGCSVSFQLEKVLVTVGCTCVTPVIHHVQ


Key:
human IL-25 [1] = biological target: T1, human IL-25; experiment: SPR, Biacore T200; antibody captured by anti-human Fc, IL-25 as analyte
Method: Anti-human Fc gamma specific antibody (Jackson Immuno Research, Lot no. 124448, Code. 109-008-098) was immobilized onto the Biacore T200 sensor chip using amine coupling method. Four antibodies secreted to the culture medium plus the parental antibody were injected and captured by anti-human Fc antibody via Fc (capture phase) individually. After equilibration, IL-25 was injected for 300 seconds (association phase) followed by the injection of running buffer for 1200 s (dissociation phase). Responses of reference flow cell (flow cell 1) were subtracted from those of humanized antibodies flow cells during each cycle. The surface was regenerated before the injection of another humanized antibody. The process was repeated until all antibodies are analyzed. The off-rates of humanized antibodies were obtained from fitting the experimental data locally to 1:1 interaction model using the Biacore T200 evaluation software. The antibodies were ranked by their dissociation rate constants (off-rates, Kd). The binders that interact with IL-25 with similar affinity to parental antibody were selected (Table 1).

human IL-25 [2] = biological target: T1, human IL-25; experiment: ELISA, plate coated with 2 µg/ml human IL-17E (IL-25)
Method: (§1) MaxiSorp 96-well plates (NUNC #449824, www.thermofisher.com) were coated with 2 μg/ml human IL-17A (Cell Signaling #89285F, www.cellsignal.com), human IL-17F (Cell Signaling #8906LC, www.cellsignal.com), human IL-17B (Peprotech #200-28, www.peprotech.com), human IL-17C (R&D systems #1234-IL-025/CF, www.rndsystems.com), human IL-17D ((Peprotech #200-27, www.peprotech.com), human IL-17E (R&D systems #1258-IL-025/CF, www.rndsystems.com) in 1×PBS (50 μl/well) respectively. Plates were incubated at 4° C. overnight. Coating solution was removed and plates were washed once with 200 μl/well PBST (1×PBS with 0.05% tween-20). Then 200 μl/well blocking buffer (1×PBS with 0.05% tween-20, 3% BSA) was added and incubated at room temperature for 1 hour. Blocking buffer was removed and plates were washed three times with 200 μl/well PBST (1×PBS with 0.05% tween-20). The anti-IL-25 antibodies (produced in Example 2), were diluted to 10, 3.33, 1.11, 0.37, 0.123, 0.041, 0.0137, 0.0046, 0.0015, 0.00031, 0.000102, 0.000034 μg/ml by 1×PBS and added to the plates (50 μl/well). Plates were incubated at room temperature for 2 hours. Antibodies in the wells were removed and plates were washed three times with 200 μl/well PBST (1×PBS with 0.05% tween-20) each time. Goat anti-human IgG(H&L)-HRP secondary antibody (Jackson Immuno Research #109-035-088, www.jacksonimmuno.com) was diluted 1:5000 in 1×PBS and added to each well (50 μl/well). Plates were incubated at room temperature for 1 hour. Secondary antibody was removed and plates were washed seven times with 200 μl/well PBST (1×PBS with 0.05% tween-20) each time. 50 μl/well TMB (eBioscience #85-00-4201-56, www.ebioscience.com) was added and plates were incubated at room temperature for several minutes. Then 50 μl/well 2N H₂SO₄ was added to stop the reaction. Plates were read at 450 nm.

human IL-17B = biological target: T2, human IL-17B; experiment: ELISA, plate coated with 2 µg/ml cytokine
Method: as §1

human IL-17C = biological target: T3, human IL-17C; experiment: ELISA, plate coated with 2 µg/ml cytokine
Method: as §1

human IL-17A = biological target: T4, human IL-17A; experiment: ELISA, plate coated with 2 µg/ml cytokine
Method: as §1

human IL-17D = biological target: T5, human IL-17D; experiment: ELISA, plate coated with 2 µg/ml cytokine
Method: as §1

human IL-17F = biological target: T6, human IL-17F; experiment: ELISA, plate coated with 2 µg/ml cytokine
Method: as §1

| Binder | Kd (human IL-25 [1]) [nM] | koff (human IL-25 [1]) [s⁻¹] | kon (human IL-25 [1]) [M⁻¹ s⁻¹] | EC50 (human IL-25 [2]) [nM] | binding result (human IL-17B) | binding result (human IL-17C) | binding result (human IL-17A) | binding result (human IL-17D) | binding result (human IL-17F) |
| --- | --- | --- | --- | --- | --- | --- | --- | --- | --- |
| VH1-1 + VL2-1 (humanized anti-IL-25 antibody formed by VH1-1 and VL2-1) (antibody, V domains shown) VH: QVTLKESGPTLVKPTQTLTLTCTFSGFSLSTSGMGLGWIRQPPGKALEWLAHIWWDDVKHYKPALKSRLTITKDTSKNQVVLTMTNVDPVDTATYYCARMGQLHYYGYDYAMDYWGQGTLVTVSS VL: DIQLTQSPSFLSASVGDRVTITCSASSSVSYMYWYQQKPGKAPKPLIYRTSNLASGVPSRFSGSGSGTEYTLTISSMQPEDFATYYCQLYHSYPPTWTFGQGTKLEIK | 0.271 | 0.000259 | 957000 | 0.15 | no binding (tested: 10 µg/ml) | no binding (tested: 10 µg/ml) | no binding (tested: 10 µg/ml) | no binding (tested: 10 µg/ml) | no binding (tested: 10 µg/ml) |
| VH2-1 + VL2-1 (humanized anti-IL-25 antibody formed by VH2-1 and VL2-1) (antibody, V domains shown) VH: QVTLRESGPALLKPTQTLTLTCTFSGFSLSTSGMGLGWIRQPPGKALEWLAHIWWDDVKHYKPALKSRLTISKDTSKNQVVLTITNVDPVDTATYYCARMGQLHYYGYDYAMDYWGQGTLVTVSS VL: DIQLTQSPSFLSASVGDRVTITCSASSSVSYMYWYQQKPGKAPKPLIYRTSNLASGVPSRFSGSGSGTEYTLTISSMQPEDFATYYCQLYHSYPPTWTFGQGTKLEIK | 0.302 | 0.000353 | 1.17e+06 | 0.187 | no binding (tested: 10 µg/ml) | no binding (tested: 10 µg/ml) | no binding (tested: 10 µg/ml) | no binding (tested: 10 µg/ml) | no binding (tested: 10 µg/ml) |

More lines, in order of falling Kd (human IL-25 [1]), values ahead:

| Kd (human IL-25 [1]) [nM] | koff (human IL-25 [1]) [s⁻¹] | kon (human IL-25 [1]) [M⁻¹ s⁻¹] | EC50 (human IL-25 [2]) [nM] | binding result (human IL-17B) | binding result (human IL-17C) | binding result (human IL-17A) | binding result (human IL-17D) | binding result (human IL-17F) | Binder |
| --- | --- | --- | --- | --- | --- | --- | --- | --- | --- |
| 0.34 | 0.000267 | 785000 | – | – | – | – | – | – | murine anti-IL-25 monoclonal antibody 18H3 (antibody, V domains shown, also called parental antibody; parental murine mAb) VH: QVTLKESGPGILQPSQTLSLTCSFSGFSLSTSGMGLGWIRQPSGKGLEWLAHIWWDDVKHYKPALKSRLTISKDISSSQVFLTIASVDTADTATYYCARMGQLHYYGYDYAMDYWGQGTSVTVSS VL: QIVLTQSPAIMSASPGEKVTISCSASSSVSYMYWYQQKPGSSPKPWIYRTSNLASGVPARFSGSGSGTSYSLTISSMEAEDAATYYCQLYHSYPPTWTFGGGTKLEIK |
| 0.275 | 0.000327 | 1.19e+06 | 0.196 | no binding (tested: 10 µg/ml) | no binding (tested: 10 µg/ml) | no binding (tested: 10 µg/ml) | no binding (tested: 10 µg/ml) | no binding (tested: 10 µg/ml) | VH2-1 + VL1-2 (humanized anti-IL-25 antibody formed by VH2-1 and VL1-2) (antibody, V domains shown) VH: QVTLRESGPALLKPTQTLTLTCTFSGFSLSTSGMGLGWIRQPPGKALEWLAHIWWDDVKHYKPALKSRLTISKDTSKNQVVLTITNVDPVDTATYYCARMGQLHYYGYDYAMDYWGQGTLVTVSS VL: EIVLTQSPATLSASPGERVTISCSASSSVSYMYWYQQKPGQAPRPLIYRTSNLASGVPARFSGSGSGTDYTLTISSMEPEDFATYYCQLYHSYPPTWTFGQGTKLEIK |
| 0.267 | 0.000284 | 1.06e+06 | 0.25 | no binding (tested: 10 µg/ml) | no binding (tested: 10 µg/ml) | no binding (tested: 10 µg/ml) | no binding (tested: 10 µg/ml) | no binding (tested: 10 µg/ml) | VH1-1 + VL1-2 (humanized anti-IL-25 antibody formed by VH1-1 and VL1-2) (antibody, V domains shown, Captured by anti-human Fc gamma antibody in SPR) VH: QVTLKESGPTLVKPTQTLTLTCTFSGFSLSTSGMGLGWIRQPPGKALEWLAHIWWDDVKHYKPALKSRLTITKDTSKNQVVLTMTNVDPVDTATYYCARMGQLHYYGYDYAMDYWGQGTLVTVSS VL: EIVLTQSPATLSASPGERVTISCSASSSVSYMYWYQQKPGQAPRPLIYRTSNLASGVPARFSGSGSGTDYTLTISSMEPEDFATYYCQLYHSYPPTWTFGQGTKLEIK |
